Reference: publication PMC11063955, “A multiplexed time-resolved fluorescence resonance energy transfer ultrahigh-throughput screening assay for targeting the SMAD4–SMAD3–DNA complex” (Journal of Molecular Cell Biology, 2023)

Molecular target: T1, His-tagged SMAD4 WT (Mothers against decapentaplegic homolog 4) (UniProt Q13485 1-552)
T1 sequence (looked up): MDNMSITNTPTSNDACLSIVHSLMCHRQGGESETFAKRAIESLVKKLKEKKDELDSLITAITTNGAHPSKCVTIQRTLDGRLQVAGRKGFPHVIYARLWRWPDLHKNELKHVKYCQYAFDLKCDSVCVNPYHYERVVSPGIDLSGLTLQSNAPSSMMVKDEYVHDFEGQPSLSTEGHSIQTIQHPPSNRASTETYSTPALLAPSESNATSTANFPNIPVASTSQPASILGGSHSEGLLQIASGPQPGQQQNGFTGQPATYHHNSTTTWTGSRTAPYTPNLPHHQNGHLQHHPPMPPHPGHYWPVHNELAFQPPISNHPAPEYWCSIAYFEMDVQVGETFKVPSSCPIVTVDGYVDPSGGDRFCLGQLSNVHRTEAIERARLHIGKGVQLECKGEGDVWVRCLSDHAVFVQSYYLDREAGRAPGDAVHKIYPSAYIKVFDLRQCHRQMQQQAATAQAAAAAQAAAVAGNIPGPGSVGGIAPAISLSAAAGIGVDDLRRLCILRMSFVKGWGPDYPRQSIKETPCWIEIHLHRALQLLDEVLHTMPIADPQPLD
Assay: cell-based or functional assay

SBE4-luciferase reporter activity upon TGFβ (10 ng/ml) stimulation, HEK293T cells with endogenous SMAD4 and SMAD3, fold-of-change: > 3 fold
B1: Flag-tagged SMAD3 WT (natural protein, UniProt P84022 1-425, looked up)
chain: MSSILPFTPPIVKRLLGWKKGEQNGQEEKWCEKAVKSLVKKLKKTGQLDELEKAITTQNVNTKCITIPRSLDGRLQVSHRKGLPHVIYCRLWRWPDLHSHHELRAMELCEFAFNMKKDEVCVNPYHYQRVETPVLPPVLVPRHTEIPAEFPPLDDYSHSIPENTNFPAGIEPQSNIPETPPPGYLSEDGETSDHQMNHSMDAGSPNLSPNPMSPAHNNLDLQPVTYCEPAFWCSISYYELNQRVGETFHASQPSMTVDGFTDPSNSERFCLGLLSNVNRNAAVELTRRHIGRGVRLYYIGGEVFAECLSDSAIFVQSPNCNQRYGWHPATVCKIPPGCNLKIFNNQEFAALLAQSVNQGFEAVYQLTRMCTIRMSFVKGWGAEYRRQTVTSTPCWIELHLNGPLQWLDKVLTQMGSPSIRCSSVS
